test: soluble on expression in E. coli; label from the status in PepcDB or PDB records

Sequence | soluble on expression in E. coli
MKKVGEYFLDPNLDPGRDHILYKDDEHMVIYLGTQEGLEDVDVNSYLIVSKGKGILIDPGGYKIFTKVLANVSKYIDPKDIEYIYMCHQDPDVAGSIPLWREISNAKIIIHWLWVRFLPHFGFENIRGYAHELQDEGETLNFGATTLEFIPAHFLHSPGHFTVYDRRSKFLFSGDIGIAFPDERYLVVENMERHIQYMRPLHERLMASNKALRLWVNKVRGLDIEAILPQHGAIIPRRFVPRFLDWLENLKVGVDLMR | soluble
MKKVVAVVKLQLPAGKATPAPPVGPALGQHGANIMEFVKAFNAATANMGDAIVPVEITIYADRSFTFVTKTPPASYLIRKAAGLEKGAHKPGREKVGRITWEQVLEIAKQKMPDLNTTDLEAAARMIAGSARSMGVEVVGAPEVKDA | soluble
MKKVYIKTFGCQMNEYDSDKMADVLGSAEGMVKTDNPEEADVILFNTCSVREKAQEKVFSDLGRIRPLKEANPDLIIGVGGCVASQEGDAIVKRAPFVDVVFGPQTLHRLPDLIESRKQSGRSQVDISFPEIEKLEHHHHHH | not soluble
MKKYILSLDQGTTSSRAILFNKKGEIVHSAQKEFTQHFPKPGWVEHNAQEIWGSILAVIATCLSEADVKPEQIAGIGITNQRETAVVWDKTTGKPIYNAIVWQSRQTAEICDELKEKGYSEMVREKTGLLIDAYFSGTKVKWILDNVEGAREKAENGDLLFGTIDTWLVWKLSGGKAHVTDYSNASRTLMFNIHDLQWDDELLDMLTVPKSMLPEVRPSSEVYGETIDYHFFGQNVPIAGVAGDQQAALFGQACFGEGMAKNTYGTGCFMLMNTGEKAVASEHGLLTTIAWGIDGKVNYALEGSIFVAGSAIQWLRDGMRMFKDASESEVYASRVESTDGVYVVPAFVGLGTPYWDSEVRGAMFGVTRGTTKEHFIRATLESLAYQIKDVLCAMEADSGIELKTLRVDGGAVKNNFLMKFQSDILDVPVERPVINETTALGAAYLAGLAVGYWKNQDEIKEQWHMDKRFEPTMEAETSEELYAGWKKAIEATKAFK | not soluble
MKKYTEMTKDELMQEKTALEAEYEKIKNLGLSLDMSRGKPGADQLDLSLPMLDVLKSDSDMKSESGLDVRNYACLDGIPEAKALIAGMVGAKPEQAIVYGNSSLNIMYDQVARAFIFGLCGNTPWCKLDKVKFLCPVPGYDRHFAITEEFGVEMINIPMTEDGPDMDMVEKYVNNDASVKGIWCVPKYSNPQGVVYSDETVERFAKLKPAADDFRIFWDNAYTVHHLYDDKQAEIPNILELCEKEGNPDMVFEFCSTSKVTFPGAGVAGICTSEKNREDIKKRLTIQTIGHDKINQLRHARFFKDVDGIKAHMAKHAALIRPKFELVENILTDEIASRGIGTWVKPLGGYFFGFEALSGCAKEIVAKCKEAGVTMTGAGSPFPYKKDPDDSVIRIAPTYPSLDELKKAAEVFVIVTRLVSVNKLLEA | not soluble
MKLAKRVAALTPSATLEITAKAQALKAEGHDVIGLGAGEPDFNTPEHIMDAAHKAMLEGHTKYTPTGGLQALKQEIVKKFTRDQGIAYDPSEIIVCNGAKHALYTLFQVLLDEGDEVIIPTPYWVSYPEQVKLAGGKPVYVEGLEGNEYKITAEQLREAITEKTKAVIINSPSNPTGMIYSKEELQQLGEVCLEHDILIVSDEIYEKLIYGGAEYTSIAQLSNALKEQTLIINGVSKSHSMTGWRIGYAAGNKQLIKAMTNLASHSTSNPTSIAQYGAIAAYAGSQEPVETMRQAFEERLNIIYDKLIQIPGFTCIKPQGAFYLFPNVKEAVALSGYETVDEWAKALLEEEKVALVPGTGFGAPNNVRLSYATSLEQVEKALERIHTFMKSKVQA | not soluble
MKLAVITDSTATLPTDLKQDKAIFSLDIPVIIDDETYFEGRNLSIDDFYQKMADSQNLPKTSQPSLSELDNLLGLLSSKGYTHVIGLFLAGGISGFWQNIQFLAEEHPEIEMAFPDSKITSAPLGSMVKNVLDWSRQGMTFQAILNKLQEQIDGTTAFIMVDDLNHLVKGGRLSNGSALLGNLLSIKPILRFDEEGKIVVYEKVRTEKKAMKRLVEILNDLIADGQYNVFIIHSKAQDKADYLKRLLQDSGYQYDIEEVHFGAVIATHLGEGAIAFGVTPRL | not soluble
MKLINTTWTHQELVNNQLDNTDAFLVETYSAGNTDVVFTQAPKHYELLISNKHRAVKDNELEVIREFFLKRKIDKDIVLMDKLRTVHTDKLIEISFPTTV | soluble
MKLIPFPYPLNIGTDVVHLPRILRLINRPDYFHRFTRRILHEQEQRDFRTRFSLPPPSSGAEKTGLNPITPDMARWLAGRFAAKEAARKAAPAGASSLGWKDVIVRVGEADKGRPEIVYLDPMGCGETGGGRVGKLSISHDGDYVVATVLAAG | not soluble
MKLIRGIHNLSQAPQEGCVLTIGNFDGVHRGHRALLQGLQEEGRKRNLPVMVMLFEPQPLELFATDKAPARLTRLREKLRYLAECGVDYVLCVRFDRRFAALTAQNFISDLLVKHLRVKFLAVGDDFRFGAGREGDFLLLQKAGMEYGFDITSTQTFCEGGVRISSTAVRQALADDNLALAESLLGHPFAISGRVVHGDELGRTIGFPTANVPLRRQVSPVKGVYAVEVLGLGEKPLPGVANIGTRPTVAGIRQQLEVHLLDVAMDLYGRHIQVVLRKKIRNEQRFASLDELKAQIARDELTAREFFGLTKPA | soluble
MKLKKLQIEPTTFCTLDCEYCHRKSIPPQDLPLEVLDRVNGVAKEYVIYGYGEPLLYPDFFKRIEGFDGKVVISTNGMLDSDILDLADKVGVSIDVNDKFRKGLEVEKALEVLRKLGERGIAEVVVTKDNLELLPAFFERIAEHGSGMLATNVVASNPAIYEQGVYFECSRITVEKVLGLDESILVEAIKDCSRGGGEALRRYKHLLKEVYSKGYSINLLAIFGRKGRVETAFKAEGVFEMLRDLAGDYGVELIEPSFFGDSKARECPYRDSAFLRVDGKISSCMSFAYTHTEYVDGHYKKVEKFCPGNVLKEDIDDVIGKMAEFERVRADMENFPWCADCPYVEGCWYAETNVDCYANLPSCSECLYSSGIAKCLLGD | not soluble
MKLKSLDFPTGYFYFDNAAINSDKVEVIAVGYRNTDKTIKIFIEDVIHFRVVDESYFIDTFMDLISEDADRALLHENGGQSFFELLDECYAEWILKESYFPLNREFFKYYIFMFEQTFIEIIGSSATYSIIEG | not soluble
MKLLALVALCAVGVASHRDKRQLSIGTISVSGAGGSTGCVVTGNVLYANGIRLRNLTSSEQSELATYQTEVEQYKTQLRNILSQRRENLRNRLMSQGRNQQQQSNDVSSQGGNDDGSIPKAPEKPSFCTAEDTTQYYFDGCMVQGNKVYVGGQYARDLSSDEISELQTFDTQQTAYQNAVQSQMQSQVQGLFGGSDFLSALFGGDRFNQQQQRQQPSSTTPASTSSTTLPPKPTVPQFCTAIF | not soluble
MKLLVATTNEGKYREIKEILSEYGIEVLKPEEKLEVEETGCTFLENAYLKARAYYERYKIPALADDSGLIVEAISPYPGVYSSRFYDIDFGGREEVRTNKDEANIRKLLRLLENTENRKAKFVAFIVVYGGSWGIFAEGEVRGEITKEPRGDRGFGYDPVFVPEGYNKTMAELSPEEKNKISHRGRALRKLVHVLKNCEKAF | soluble
MKLNIKDVVLNYNIIGEGEPIIILHGYSVDHTIMFGCMENLFSDESRYKRIYVDLPGMGKSTSSDSIKTSDNMLDIILEFIMKVTKGENFLLVGESYGGYLSRGVVYKIREKVNGLFLICPAIIPDFNKRTVPEHVILAYDEKLMSKLNKEEAEEFSSMSVVQNEKIYLRFKEEVMSGIKLGNQDFLERLQREGYGFSFDVDKLPQKFDKPTLMLLGKQDASVGYKDAWNILDNYPRATFAVLDMAGHNLQIEQEDIFNLLGKEWISRTYREKDY | not soluble
MKLNIRAQTAQNQHNNSPIVLVHGLFGSLDNLGVLARDLVNDHNIIQVDMRNHGLSPRDPVMNYPAMAQDLVDTLDAQQIDKATFIGHSMGGKAVMALTALASDRIDKLVAIDIAPVDYHVRRHDEIFAAINAVSESDAQTRQQAAAIMRQHLNEEGVIQFLLKSFVDGEWRFNVPVLWDQYPHIVGWEKIPAWDHPALFIPGGNSPYVSEQYRDDLLAQFPQARAHVIAGAGHWVHAEKPDAVLRAIRRYLND | not soluble
MKLSLRQLQIFCAVAQHGSTTSAAISVSLSQSATSAALNELESALDTRLFDRVGKRLVLNDNGHALLPQARRMLENAQQIEASFLPGHAGLKTRLRVGCSTTIGNYVLPLILGELRQSTPHLRVDVDMANSMAIARRVADFEIDMGLIEGPCHLPELSAEPWLIDELLIAAGQRHPLALKQQVTLDDLRTAEWLLREPGSGTREEVEQLLLRHLHDLAETRQIGSSEAIKHTLAQGIGISCLSRWVVRDLLASEVLVELPHALPALTRRFFLIRHRDKYISPGLERFWEKCSQFVSQE | not soluble
MKMKDELINLIINEGCIKFGHFVLTSGKESNYYIDIKSLITNPKALRIIAKLIKEKAEELNLNYDKIAGPELGAVPIATALSLETNKPLLIVRKKKKEHGTGKVIEGNVQKGDKVLLVEDVTTTGGSVIRAAKILREHGADVVGIFVVVDREEGAKENIEKEGFKFYPLVLVSELFKAAGISKDQS | soluble
MKMVTGAVASVLEDEATDTSDSEGSCGSEKDHFYSDDDAIEADSEGDAEPCDKENENDGESSVGTNMGWADAMAKVLNKKTPESKPTILVKNKKLEKEKEKLKQERLEKIKQRDKRLEWEMMCRVKPDVVQDKETERNLQRIATRGVVQLFNAVQKHQKNVDEKVKEAGSSMRKRAKLISTVSKKDFISVLRGMDGSTNETASSRKKPKAKQTEVKSEEGPGWTILRDDFMMGASMKDWDKESDGPDDSRPESASDSDT | not soluble
MKNAVHFGAGNIGRGFIGKLLADAEVEVTFADVDVPLVDQLSHKQEYKVKVVGTECKIDTVTHVTAVNSASEDVIDRIVKTDLVTTAVGPNVLDIIAKTIAKGIAKRFEAGNDAPLNIIACENMVRGTTHLKGEVYKHLDKSLHAKADELVGFVDSAVDRIVPPAEAANDDPLEVTVESFSEWIVDEQQFKGDIPNIAGMEKTNNLMAFVERKLFTLNTGHCITAYLGCLKGHRTIREAIEDPNIHAEVKQAMQESGEVLIRRYGFDHDMHNAYIEKILGRFANPYLVDEVDRVGRQPIRKLGANDRLVKPLLGTIEYGTENQTLLKGIAAALKYTNDTDPQAVELQTSLKEVGVTKTLAKYTGLAEDSDEVAQIETLYNQL | not soluble
MKNDEVLLSIKNLKQYFNAGKKNEVRAIENISFDIYKGETLGLVGESGCGKSTTGKSIIKLNDITSGEILYEGIDIQKIRKRKDLLKFNKKIQMIFQDPYASLNPRLKVMDIVAEGIDIHHLATDKRDRKKRVYDLLETVGLSKEHANRYPHEFSGGQRQRIGIARVLAVEPEFIIADEPISALDVSIQAQVVNLLLKLQRERGITFLFIAHDLSMVKYISDRIAVMHFGKIVEIGPAEEIYQNPLHDYTKSLLSAIPQPDPESERSRKRFSYIDDEANNHLRQLHEIRPNHFVFSTEEEAAQLRENKLVTQN | not soluble
MKNEVKFMSEVIKVVDVKIFPHRYLKAETTEKVLNEIYDLDGIVRVIVHGQPLPKTVPFGPARGLPVNHQDRKVIKVKGEEMELRVKVGEIIITVEGEKLEKIMDGIEEICKRNFPFGYDIYVGAFTKIKPTVTDYMKYGDISSIDPRLIGMVDASARLKDSVKMIKLEHHHHHH | soluble
MKNLIAELLFKLAQKEEESKELCAQVEALEIIVTAMLRNMAQNDQQRLIDQVEGALYEVKPDASIPDDDTELLRDYVKKLLKHPCQ | not soluble

Source: the DeepSol protein solubility set
